B1: SABA1-PYYv7 (designed binder)
chain: MGVSDVPRDLEVVAATPTSLLISWHSYYEQNSYYRITYGETGGNSPVQEFTVPYSQTTATISGLKPGVDYTITVYAVYGSKYYYPISINYRTEIEDEDEDEDEDGC
modifications: Maleimide-PEG20 spacer (X1) between the Cys after (ED)5G and PYYv17 (mouse PYY3-36); C-terminal amidation
notes: also called SABA-PYY3-36-CONH2 conjugate; SABA1.7-(ED)5G-Cys-PEG20-PYY-CONH2
B2: SABA1-FGF21v3 (designed binder)
chain: MGVSDVPRDLEVVAATPTSLLISWHSYYEQNSYYRITYGETGGNSPVQEFTVPYSQTTATISGLKPGVDYTITVYAVYGSKYYYPISINYRTEIDKPSQHHHHHHGSGSGSGSGSGSGSPIPDSSPLLQFGGQVRQRYLYTDDAQQTEAHLEIREDGTVGGAADQSPESLLQLKALKPGVIQILGVKTSRFLCQRPDGALYGSLHFDPEACSFRELLLEDGYNVYQSEAHGLPLHLPGNKSPHRDPAPRGPARFLPLPGLPPALPEPPGILAPQPPDVGSSDPLSMVGPSQGRSPSYAS
notes: Fusion of SABA1 and FGF21; also called SABA1-FGF21 variant 3

How the values were obtained:
human NPY Y2 receptor = biological target: T1, human NPY Y2 receptor (human, UniProt P49146 1-381); test: cell-based or functional assay
T1 sequence (looked up): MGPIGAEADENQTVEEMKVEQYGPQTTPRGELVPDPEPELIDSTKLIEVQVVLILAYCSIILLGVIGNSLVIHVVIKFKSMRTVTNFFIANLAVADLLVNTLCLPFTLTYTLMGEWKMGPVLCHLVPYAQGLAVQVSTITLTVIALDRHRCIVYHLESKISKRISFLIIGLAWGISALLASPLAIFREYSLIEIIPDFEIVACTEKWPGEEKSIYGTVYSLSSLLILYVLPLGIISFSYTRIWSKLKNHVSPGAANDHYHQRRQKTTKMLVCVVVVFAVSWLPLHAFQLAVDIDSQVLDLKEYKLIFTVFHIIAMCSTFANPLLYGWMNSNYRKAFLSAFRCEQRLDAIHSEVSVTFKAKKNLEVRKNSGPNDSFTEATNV

human serum albumin [1] = biological target: T2, human serum albumin (human, UniProt P02768 25-609); test: Affinity for hSA by SPR (same value as in Table 21)
T2 construct: also called HSA; HuSA
Protocol: (§1) Surface Plasmon Resonance (SPR) is a direct binding technique by which molecular interactions can be observed in real time. For these experiments, SPR binding studies were performed using a ProteOn XPR36 instrument (BioRad Laboratories). The running buffer, phosphate buffered saline 0.05% Tween 20 pH 7.4, was purchased from Teknova (cat #P1192) and all experiments were run at 25° C. Human serum albumin was directly immobilized on a BioRad GLC chip via amine coupling as per manufacturer's guidelines using amine coupling reagents purchased from BioRad Laboratories. Human serum albumin was purchased from Novozymes (Recombumin™). About 5000 resonance units (RU) of human serum albumin were immobilized onto 4 separate lanes of the GLC chip surface. […] The dissociation was monitored for 600 seconds. The surface was regenerated with 100 mM HCl. The resultant data were fitted to a Langumuir 1:1 binding model using the ProteOn Manager Software. The experiment was repeated with a different concentration range. In this second experiment, 5 concentrations ranging from 500 nM to 32 nM were injected over the surfaces, and the data analyzed as above. The KD is the disassociation constant. Smaller numbers indicate tighter binding to serum albumin.

human serum albumin [2] = biological target: T2, human serum albumin; test: SPR (ProteOn XPR36), HSA immobilized on GLC chip, 25 C
Protocol: as §1

human serum albumin [3] = biological target: T2, human serum albumin; test: SPR (Biacore T100), HSA immobilized, 37 C, 30 µl/min
Protocol: (§2) Serum albumins were dissolved in PBS buffer (10 mM sodium phosphate, 130 mM sodium chloride, pH 7.1) to a concentration of 10 mg/ml, and subsequently diluted to 8-10 μg/ml in 10 mM sodium acetate pH 5.0 for immobilization. Serum albumins were immobilized on a Series S CM5 sensor chip using standard ethyl(dimethylaminopropyl) carbodiimide (EDC)/N-hydroxysuccinimide (NHS) chemistry in HBS-EP+ running buffer at 25° C., following general manufacturer guidelines. Flow cell 1 was activated with EDC/NHS and blocked with ethanolamine. […] Kinetic experiments were performed in PBS buffer containing 0.05% tween-20 (running buffer) at either 25° C. or 37° C. […] These samples were injected across flow cells 1-4 for 300 s, with a 420 s dissociation time, at flow rates of 30 μl/min or 60 μl/min to check for mass transfer limitation. All surfaces were regenerated with 2 pulses of 10 mM glycine pH 2.0 at 30 μl/min for 30 s. Raw sensograms were “double-referenced” by subtracting flow cell 1 data from flow cell 2, 3 or 4 data, and then subtracting a separate buffer cycle from each sensogram. The double-referenced sensogram data was fitted to a 1:1 Langmuir model using Biacore T100 Evaluation software version 2.0.2 to determine the association rate constant (ka), the dissociation rate constant (kd), and the equilibrium dissociation constant (KD).

human serum albumin [4] = biological target: T2, human serum albumin; test: SPR (Biacore T100), HSA immobilized, 37 C, 60 µl/min
Protocol: as §2

[5] = biological target: T3, cynomolgous monkey serum albumin (cynomolgous monkey, UniProt A2V9Z4 25-608); test: SPR (Biacore T100), CySA immobilized, 37 C, 30 µl/min
T3 construct: also called CySA
Protocol: as §2

[6] = biological target: T3, cynomolgous monkey serum albumin; test: SPR (Biacore T100), CySA immobilized, 37 C, 60 µl/min
Protocol: as §2

murine serum albumin = biological target: T4, murine serum albumin (mouse, UniProt P07724 25-608); test: SPR (Biacore T100), immobilized MuSA, analyte series 1000 to 62.5 nM, 37 C
T4 construct: also called MuSA; mouse serum albumin
Protocol: as §2

T3 sequence (A2V9Z4 25-608 limits assumed): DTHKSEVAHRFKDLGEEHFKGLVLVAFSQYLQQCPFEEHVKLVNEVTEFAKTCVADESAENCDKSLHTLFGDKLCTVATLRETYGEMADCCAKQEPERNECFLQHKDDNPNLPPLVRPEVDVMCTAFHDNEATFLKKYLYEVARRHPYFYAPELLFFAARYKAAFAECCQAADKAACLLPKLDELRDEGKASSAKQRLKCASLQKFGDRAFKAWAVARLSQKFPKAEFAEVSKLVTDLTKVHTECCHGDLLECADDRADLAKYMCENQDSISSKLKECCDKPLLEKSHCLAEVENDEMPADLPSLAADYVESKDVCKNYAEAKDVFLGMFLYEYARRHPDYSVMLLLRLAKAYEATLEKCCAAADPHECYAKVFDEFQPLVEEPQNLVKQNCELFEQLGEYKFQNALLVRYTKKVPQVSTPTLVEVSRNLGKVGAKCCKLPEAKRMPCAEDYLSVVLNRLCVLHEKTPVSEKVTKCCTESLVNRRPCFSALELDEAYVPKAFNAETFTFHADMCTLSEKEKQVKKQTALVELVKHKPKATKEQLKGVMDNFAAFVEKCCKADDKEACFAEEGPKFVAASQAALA
T4 sequence (P07724 25-608 limits assumed): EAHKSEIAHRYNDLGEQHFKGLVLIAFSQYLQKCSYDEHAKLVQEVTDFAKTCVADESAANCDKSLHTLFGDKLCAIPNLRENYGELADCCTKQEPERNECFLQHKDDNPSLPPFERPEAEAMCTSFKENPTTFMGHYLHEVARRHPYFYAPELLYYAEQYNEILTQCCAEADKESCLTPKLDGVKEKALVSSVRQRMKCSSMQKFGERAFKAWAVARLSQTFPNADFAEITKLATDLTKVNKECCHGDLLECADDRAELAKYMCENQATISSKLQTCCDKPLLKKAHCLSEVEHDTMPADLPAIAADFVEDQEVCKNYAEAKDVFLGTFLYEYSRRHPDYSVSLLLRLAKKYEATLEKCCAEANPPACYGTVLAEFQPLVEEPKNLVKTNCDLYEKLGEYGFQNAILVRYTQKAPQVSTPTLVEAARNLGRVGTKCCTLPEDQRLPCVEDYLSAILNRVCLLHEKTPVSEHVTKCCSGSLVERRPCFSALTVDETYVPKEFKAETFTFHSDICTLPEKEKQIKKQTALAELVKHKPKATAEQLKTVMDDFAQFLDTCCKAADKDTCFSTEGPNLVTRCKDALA

| Binder | Potency (EC50, nM), GTPγS binding functional assay (human NPY Y2 receptor) | Kd (human serum albumin [1]) | Kd (human serum albumin [2]) | koff (human serum albumin [2]) | kon (human serum albumin [2]) | Kd (human serum albumin [3]) | koff (human serum albumin [3]) | kon (human serum albumin [3]) | Kd (human serum albumin [4]) | koff (human serum albumin [4]) | kon (human serum albumin [4]) | Kd [5] | koff [5] | kon [5] | Kd [6] | koff [6] | kon [6] | binding result (murine serum albumin) |
| --- | --- | --- | --- | --- | --- | --- | --- | --- | --- | --- | --- | --- | --- | --- | --- | --- | --- | --- |
| B1 | 52 nM | 22.5 nM | 22.5 nM | 0.000208 s⁻¹ | 9290 M⁻¹ s⁻¹ |  |  |  |  |  |  |  |  |  |  |  |  |  |
| B2 |  |  |  |  |  | 170 nM | 0.00103 s⁻¹ | 6160 M⁻¹ s⁻¹ | 180 nM | 0.00107 s⁻¹ | 5870 M⁻¹ s⁻¹ | 2200 nM | 0.0117 s⁻¹ | 5310 M⁻¹ s⁻¹ | 3100 nM | 0.0136 s⁻¹ | 4380 M⁻¹ s⁻¹ | no binding (tested: 1000 nM) |
